# Results as given in patent US20180125995A1, “ANTI-STAPHYLOCOCCUS AUREUS ANTIBODY RIFAMYCIN CONJUGATES AND USES THEREOF” (priority 2014, published 2018).
# B1: rF1: recombinantly produced F1, fully human IgG1 anti-SDR monoclonal antibody binding S. aureus and S. epidermidis (antibody, V domains shown)
# VH: EVQLVESGGGLVQPGGSLRLSCAASGFTLSRFAMSWVRQAPGRGLEWVASINNGNNPYYARSVQYRFTVSRDVSQNTVSLQMNNLRAEDSATYFCAKDHPSSGWPTFDSWGPGTLVTVSS
# VL: DIQLTQSPSALPASVGDRVSITCRASENVGDWLAWYRQKPGKAPNLLIYKTSILESGVPSRFSGSGSGTEFTLTISSLQPDDFATYYCQHYMRFPYTFGQGTKVEIKRTV
# Tests used:
# [1] = system: USA300 derived from infected mouse kidneys, livers and lungs; test: FACS analysis of rF1 binding to USA300 from infected mouse tissues; set-up: species or system Staphylococcus aureus
# Procedure: (§1) For antibody staining of bacteria from infected mouse tissues, 6-8 weeks old female C57Bl/6 mice (Charles River, Wilmington, Mass.) were injected intravenously with 10^8 CFU of logphase-grown USA300 in PBS. Mouse organs were harvested two days after infection. Rabbit infective endocarditis (IE) was established as described in Tattevin P, et al. (2010) Antimicrobial agents and chemotherapy 54: 610-613. Rabbits were injected intravenously with 5×10^7 CFU of stationary-phase grown MRSA strain COL, and heart vegetations were harvested eighteen hours later. Treatment with 30 mg/kg of vancomycin was given intravenously b.i.d. 18 h after infection with 7×10^7 CFU stationary-phase COL.
# (§2) To lyse mouse or rabbit cells, tissues were homogenized in M tubes (Miltenyi, Auburn, Calif.) using a gentleMACS® cell dissociator (Miltenyi), followed by incubation for 10 min at RT in PBS containing 0.1% Triton-X100 (Thermo), 10 µg/mL of DNAseI (Roche) and Complete Mini protease inhibitor cocktail (Roche). The suspensions were passed through a 40 micron filter (BD) and bacteria were stained with mAbs as described above. […] During flow cytometry analysis, bacteria were gated for positive staining with mAb 702 from double fluorescence plots. […]
# [2] = system: MRSA strain USA300; test: Flow cytometry binding of mAbs to USA300 bacteria; set-up: species or system Staphylococcus aureus; conditions: MFI
# Procedure: (§3) (FIGS. 5A-C) Bacteria were preopsonized with huIgG1 mAbs rF1 (squares), 4675 anti-ClfA (triangles), or anti-herpes virus gD (circles). (FIG. 5A): Binding of mAbs to WT (USA300-Aspa) bacteria was assessed by flow cytometry, and expressed as mean fluorescent intensity (MFI). (FIG. 5B): CFSE-labeled, preopsonized WT (USA300-Aspa) bacteria were incubated with human PMN. Bacterial uptake was expressed as % of CFSE-positive PMN, after gating for CD11b-positive cells by flow cytometry. (FIG. 5C): Preopsonized WT (USA300-Aspa) bacteria were incubated with PMN to assess bacterial killing. Numbers of viable CFU per mL are representative of at least three experiments.
# (§4) Whole bacteria were harvested from TSA plates or TSB cultures and washed with HBSS without phenol red supplemented with 0.1% IgG free BSA (Sigma) and 10 mM Hepes, pH 7.4 (HB buffer) Bacteria (20×10^8 CFU/mL) were incubated with 300 μg/mL of rabbit IgG (Sigma) in HB buffer for 1 h at room temperature (RT) to block nonspecific IgG binding. Bacteria were stained with 2 μg/mL of primary antibodies, including rF1 or isotype control IgG1 mAb gD:5237 (Nakamura G R, et al. (1993) J Virol 67: 6179-6191), and next with fluorescent anti-human IgG secondary antibodies (Jackson Immunoresearch, West Grove, Pa.). The bacteria were washed and analyzed by FACSCalibur® (BD).
# [3] = system: 15 S. aureus strains; test: FACS analysis of rF1 binding to S. aureus strains; set-up: species or system Staphylococcus aureus; conditions: flow cytometry, all 15 strains tested
# Procedure: as §4
# [4] = system: USA300; test: Uptake and killing of preopsonized USA300 by human PMN; assay type: cell-based, Staphylococcus aureus
# Procedure: as §3
# [5] = system: S. saprophyticus, S. lugdunensis, S. simulans, S. carnosus, Streptococcus pyogenes, Bacillus subtilis, Enterococcus faecalis, Listeria monocytogenes; test: FACS analysis of rF1 binding to other staphylococcal and Gram-positive species; conditions: flow cytometry
# Procedure: as §4
# [6] = system: MRSA COL bacteria from heart vegetations; test: FACS analysis of rF1 binding to bacteria from rabbit infective endocarditis heart vegetations; set-up: species or system Staphylococcus aureus; conditions: rabbit model of infectious endocarditis
# Procedure: as §1, §2
# [7] = system: S. epidermidis; test: FACS analysis of rF1 binding to S. epidermidis; set-up: species or system Staphylococcus epidermidis; conditions: flow cytometry
# Procedure: as §4
molecule,measurement,setting,value
B1,binding to USA300 from infected mouse tissues,"[1]; kidneys, livers and lungs after systemic infection",strongly bound
same,duration of sustained binding to USA300 from mouse kidneys after infection,[1]; mouse kidneys,at least 8 days
same,maximum binding relative to isotype-matched anti-ClfA mAb,[2],approximately 10 fold
same,binding to S. aureus strains,[3],potent binding activity
same,viability of USA300 in the absence of PMN,[4]; no PMN,did not affect viability
same,bacterial killing by PMN (viability),"[4]; preopsonized USA300, human PMN",potent killing
same,bacterial uptake by PMN,"[4]; preopsonized USA300, human PMN",increased uptake
same,binding to other staphylococcal and Gram-positive species,[5],did not bind
same,binding to MRSA COL from rabbit heart vegetations,[6],strongly bound
same,binding to S. epidermidis,[7],detectable
